B1: human TAPBPR luminal domain (hTAPBPR), Q9BX59 22-405 (protein)
chain: KPHPAEGQWRAVDVVLDCFLAKDGAHRGALASSEDRARASLVLKQVPVLDDGSLEDFTDFQGGTLAQDDPPIIFEASVDLVQIPQAEALLHADCSGKEVTCEISRYFLQMTETTVKTAAWFMANMQVSGGGPSISLVMKTPRVTKNEALWHPTLNLPLSPQGTVRTAVEFQVMTQTQSLSFLLGSSASLDCGFSMAPGLDLISVEWRLQHKGRGQLVYSWTAGQGQAVRKGATLEPAQLGMARDASLTLPGLTIQDEGTYICQITTSLYRAQQIIQLNIQASPKVRLSLANEALLPTLICDIAGYYPLDVVVTWTREELGGSPAQVSGASFSSLRQSVAGTYSISSSLTAEPGSAGATYTCQVTHISLEEPLGASTQVVPPERR
B2: mouse TAPBPR luminal domain (moTAPBPR) (protein, UniProt Q8VD31 21-412, looked up)
chain: TDPPTAPTTAERQRQPTDIILDCFLVTEDRHRGAFASSGDRERALLVLKQVPVLDDGSLEGITDFQGSTETKQDSPVIFEASVDLVQIPQAEALLHADCSGKAVTCEISKYFLQARQEATFEKAHWFISNMQVSRGGPSVSMVMKTLRDAEVGAVRHPTLNLPLSAQGTVKTQVEFQVTSETQTLNHLLGSSVSLHCSFSMAPGLDLTGVEWRLQHKGSGQLVYSWKTGQGQAKRKGATLEPEELLRAGNASLTLPNLTLKDEGNYICQISTSLYQAQQIMPLNILAPPKIQLHLANKDPLPSLVCSIAGYYPLDVGVTWIREELGGIPAQVSGASFSSLRQSTMGTYSISSTVMADPGPTGATYTCQVAHVSLEEPLTTSMRVLPNPEQRG

Assays:
[1] = target: peptide-deficient (empty) HLA-B*37:01/hb2m (human); assay: SPR, TAPBPR-biotin on streptavidin chip, UV-irradiated (empty) HLA as analyte; conditions: remark: other sources report otherwise
[2] = target: 96 HLA-I allotypes on single antigen beads (SABs); assay: SAB tetramer assay, ratio to W6/32 control

Binder	Kd [1]	MFI ratio [2]
B1	7.02 µM	–
B2	–	< 5.8

Source: patent US20250179143A1, “SYSTEMS AND METHODS FOR CHAPERONE-MEDIATED LIGAND EXCHANGE ON MHC-I AND MHC-RELATED MOLECULES USING CHICKEN TAPBPR” (priority 2022, published 2025)
